B1: GN83: AMP OBPgpLYS fused to the N-terminus of lysin GN4 (SEQ ID NO: 216) (protein)
chain: MKNSEKNASIIMSIQRTLASLSLYGGRIDGLFGEKCRGAIILMLNKVYPNFSTNKLPSNTYEAESVFTFLQTALAGVGLYTITIDGKWGGTSQGAIDALVKSYRQITEAERAGSTLPLGLATVMSTSQRGIDLIKSFEGLRLSAYQDSVGVWTIGYGTTRGVTRYMTITVEQAERMLSNDIQRFEPELDRLAKVPLNQNQWDALMSFVYNLGAANLASSTLLKLLNKGDYQGAADQFPRWVNAGGKRLDGLVKRRAAERALFLEPLS
modifications: OBG_GN4_2 (Lyz+C-term)
B2: GN14: lysin obtained from Pseudomonas phage Lull (SEQ ID NO: 124) (protein)
chain: NNELPWVAEARKYIGLREDTSKTSHNPKLLAMLDRMGEFSNESRAWWHDDETPWCGLFVGYCLGVAGRYVVREWYRARAWEAPQLTKLDRPAYGALVTFTRSGGGHVGFIVGKDARGNLMVLGGNQSNAVSIAPFAVSRVTGYFWPSFWRNKTAVKSVPFEERYSLPLLKSNGELSTNEA
B3: GN122: lysin obtained from Pseudomonas putida strain PA14H7 (SEQ ID NO: 218) (protein, listed as Pseudomonas putida)
chain: MSIFSFVKEAGEKLIDLLTPGNANASEQLKEHVSKVGLGNPNIQTTVEGSKVTVTGEVASQEEKEKILLALGNIAGVESVDDQITVTGPLVAAARFVVVKKGDTLSAISLAVYGNANQYNKIFEANKPLLSHPDKIYPGQTLRIPE
B4: GN178: lysin-AMP construct: Esculentin fragment and IGEM linker N-terminal to GN146 lysin (SEQ ID NO: 6) (protein)
chain: MPPIFSKLAGKKIKNLLISGLKGGSGSGSGSGSPRTSQRGIDLIKSFEGLRLSAYQDSVGVWTIGYGTTRGVTRYMTITVEQAERMLSNDIQRFEPELDRLAKVPLNQNQWDALMSFVYNLGAANLASSTLLDLLNKGDYQGAADQFPHWVNAGGKRLDGLVKRRAAERALFLEPLS
B5: GN76: lysin obtained from Acinetobacter phage vB_AbaP_CEB1 (SEQ ID NO: 203) (protein)
chain: MILTKDGFGIIRNELFGGKLDQTQVDAINFIVEKATESGLSYPEAAYLLATIYHETGLPSGYRTMQPIKEAGSDNYLRSKKYYPYIGYGYVQLTWKENYGRIGKLIGIDLIKNPEKALEPLIAIQIAIKGMLNGWFTGVGFRRKRPVSKYNKQQYIAARNIINGKDKAELIAKYAIIFERALRSL
modifications: Acinetobacter phage vB_AbaP_CEB1
B6: GN218: lysin-AMP construct: IGEM linker and RI12 antimicrobial peptide C-terminal to GN37 lysin (SEQ ID NO: 10) (protein)
chain: MTYTLSKRSLDNLKGVHPDLVAVVHRAIQLTPVDFAVIEGLRSVSRQKELVAAGASKTMNSRHLTGHAVDLAAYVNGIRWDWPLYDAIAVAVKAAAKELGVAIVWGGDWTTFKDGPHFELDRSKYGGGSGGGGSGGGSRLKKIGKVLKWI
B7: GN93: lysin-AMP construct: cationic peptide (SEQ ID NO: 120) and linker N-terminal to GN14 lysin (SEQ ID NO: 62) (protein)
chain: MKFFKFFKFFKAGAGAGAGAGAGAGAGASNNELPWVAEARKYIGLREDTSKTSHNPKLLAMLDRMGEFSNESRAWWHDDETPWCGLFVGYCLGVAGRYVVREWYRARAWEAPQLTKLDRPAYGALVTFTRSGGGHVGFIVGKDARGNLMVLGGNQSNAVSIAPFAVSRVTGYFWPSFWRNKTAVKSVPFEERYSLPLLKSNGELSTNEA
B8: GN217: GN37 lysin with amino acid substitution R79H (SEQ ID NO: 8) (protein)
chain: MTYTLSKRSLDNLKGVHPDLVAVVHRAIQLTPVDFAVIEGLRSVSRQKELVAAGASKTMNSRHLTGHAVDLAAYVNGIHWDWPLYDAIAVAVKAAAKELGVAIVWGGDWTTFKDGPHFELDRSKYR
B9: GN80: dispersin B-like molecule (SEQ ID NO: 214) (protein, listed as Staphylococcus sciuri)
chain: MENIQKGITVDIARKSYSLETLKTIVKHIHDHNGQYLQLHFSDDENYAIESEYFDRKSFSNPYYLTKTEVKSLIEYSNDLNVMVIPDMDFPSHSKAFLSLIKQNDKSLYQEIISDYSDNTLDFFSNRKAVDVTNRQIDEITELFKQPQFAEQQRIVLGGDEVAGGGAHQNSFIEYMNQIGDYAFQQGYEPQMWNDMVTHEGVKSLNNHYSILYWKQNEDNKSNLTVEDFDKYYFDVYNYNYYSLYFLPSKQFSQDDINEQAEYIGWAYAYNKFYYNKNPYSEVNSQNVKGSALSFWGEHATDMTQEELINQEVPLIKVYFNLKK

The test system of the first test is carbepenam-resistant clinical isolate WC-453. In words: MIC in CAA without or with 25% human serum (Table 5). Format: cell-based, Pseudomonas aeruginosa. Set-up: CAA MIC: unit not given here.
Conditions: not given
The procedure:
MIC values were determined using a modification of the standard broth microdilution reference method defined by the Clinical and Laboratory Standards Institute (CLSI), CLSI. […] Methods for Dilution Antimicrobial Susceptibility Tests for Bacteria That Grow Aerobically; Approved Standard-10th Edition. Clinical and Laboratory Standards Institute, Wayne, Pa.
With B1, the “activity in CAA supplemented with human serum (25%)” value (from here on “activity … (25%)”) is reported as “repressed”.

Regarding B2, the “activity … (25%)” value is on record as “active”.

Regarding B3, the “activity … (25%)” value is “active”.

In the case of B4, the “activity … (25%)” value is “active”.

B5: the “activity … (25%)” value is “active”.

Consider B6, for which the “activity … (25%)” value is listed as “active”.

Regarding B7, the “activity … (25%)” value is “active”.

The same test, now with this note: CAA.
Regarding B1, the “CAA MIC” value is given as more than 128.

Turning to B2, the “CAA MIC” value is given as more than 128.

Take B3: the “CAA MIC” value is 2.

B4: the “CAA MIC” value was found to be 8.

Consider B5, for which the “CAA MIC” value stood at 64.

In the case of B6, the “CAA MIC” value was 8.

With B7, the “CAA MIC” value is on record as 128.

Staying with this test, now noted: CAA supplemented with 25% human serum.
Take B1: the “CAA/HuS MIC” value is on record as more than 128.

With B2, the “CAA/HuS MIC” value is given as 32.

In the case of B3, the “CAA/HuS MIC” value is recorded as 2.

On to B4, for which the “CAA/HuS MIC” value was 1.

B5: the “CAA/HuS MIC” value was determined as 8.

With B6, the “CAA/HuS MIC” value stood at 1.

Consider B7, for which the “CAA/HuS MIC” value was determined as 8.

The test system of the next test is P. aeruginosa. The test can be described thus: MIC, modified CLSI broth microdilution in CAA medium without or with […] human serum (Table 4). For CAA/HuS MIC: CAA supplemented with 2.5% human serum. Format: cell-based, Pseudomonas aeruginosa. The following applies: CAA medium, no human serum. An excerpt: 2015. […] Clinical and Laboratory Standards Institute, Wayne, Pa.
Consider B4, for which the “CAA MIC” value came to 8000 µg/mL.

With B8, the “CAA MIC” value turned out to be 4000 µg/mL.

As to B6, the “CAA MIC” value amounted to 8000 µg/mL.

B7: the “CAA MIC” value came to 128000 µg/mL.

Still in this test, the particulars now being: CAA supplemented with […] human serum.
With B4, the “CAA/HuS MIC” value came to 4000 µg/mL.

As for B8, the “CAA/HuS MIC” value came to 125 µg/mL.

On to B6, for which the “CAA/HuS MIC” value is 1000 µg/mL.

In the case of B7, the “CAA/HuS MIC” value worked out at 8000 µg/mL.

Staying with this test, now noted: CAA with and without human serum; parent GN316 or GN37.
Take B8: the “effect of the structural modification on activity (as assessed by MIC) versus the parent lysin” value is “improves its potency over GN37 both in the absence and presence of human serum”.

With B6, the “effect of the structural modification on activity (as assessed by MIC) versus the parent lysin” value is listed as “very strong activity in the presence of human serum”.

The next test deals with biofilms formed by P. aeruginosa strain ATCC 17646.
Assay: not given
The conditions noted are these: strain ATCC 17646 biofilm. The procedure: Biofilms are then washed and treated with e.g., a 2-fold dilution series of the lysin in TSBg at e.g., 37° C. for 24 hours. After treatment, wells are washed, air-dried at e.g., 37° C. and stained with e.g., 0.05% crystal violet for 10 minutes.
Molecule B1 registered an MBEC of 1 µg/mL.

B3 yielded an MBEC of 1 µg/mL.

Molecule B9 had an MBEC of 0.125 µg/mL.

B5 displayed an MBEC of 0.125 µg/mL.

B8: the MBEC was determined as 0.5 µg/mL.

For the molecule B7, the MBEC was 0.125 µg/mL.

The next test has as its system P. aeruginosa strain WC-453. In words: Time-kill assay in HEPES or CAA with 25% human serum (Tables 7, 8). The following applies: 10 μg/mL; enumerated lysins in CAA/HuS; general statement for HEPES and CAA/HuS. Format: cell-based, Pseudomonas aeruginosa. The procedure:
Exponential phase bacteria were then pelleted and resuspended in 1/5 culture volume of 25 mM HEPES, pH 7.4 before a final adjustment to an optical density corresponding to a McFarland value of 0.5. […] All treatments were incubated at 37° C. with aeration. At time points before the addition of lysin (or buffer control) and at 1 hour and 3 hours intervals thereafter, culture samples were removed for quantitative plating on CAA agar plates.
Consider B1, for which the “bactericidal activity (CFU decrease of 3-Log10, 3 hours after the addition of lysin)” value is given as “bactericidal activity”.

Take B2: the “bactericidal activity (CFU decrease of 3-Log10, 3 hours after the addition of lysin)” value is given as “bactericidal activity”.

In the case of B5, the “bactericidal activity (CFU decrease of 3-Log10, 3 hours after the addition of lysin)” value was “bactericidal activity”.

Consider B7, for which the “bactericidal activity (CFU decrease of 3-Log10, 3 hours after the addition of lysin)” value is reported as “bactericidal activity”.

Still in this test, the particulars now being: 25 mM HEPES pH 7.4; lysin 10 μg/ml; 1 hr; WC-453.
For the molecule B1, the “HEPES (Log10 CFU/mL), 1 hr” value is less than 3.7 Log10 CFU/mL.

Consider B2, for which the “HEPES (Log10 CFU/mL), 1 hr” value is reported as less than 3.7 Log10 CFU/mL.

As to B3, the “HEPES (Log10 CFU/mL), 1 hr” value came out at 7.7 Log10 CFU/mL.

In the case of B9, the “HEPES (Log10 CFU/mL), 1 hr” value is 7.7 Log10 CFU/mL.

For B5, the “HEPES (Log10 CFU/mL), 1 hr” value was less than 3.7 Log10 CFU/mL.

In the case of B7, the “HEPES (Log10 CFU/mL), 1 hr” value was found to be 6.0 Log10 CFU/mL.

Still in this test, the particulars now being: 25 mM HEPES pH 7.4; lysin 10 μg/ml; 3 hr; WC-453.
As for B1, the “HEPES (Log10 CFU/mL), 3 hr” value is listed as less than 3.7 Log10 CFU/mL.

Consider B2, for which the “HEPES (Log10 CFU/mL), 3 hr” value is on record as less than 3.7 Log10 CFU/mL.

On to B3, for which the “HEPES (Log10 CFU/mL), 3 hr” value was determined as 5.4 Log10 CFU/mL.

For the molecule B9, the “HEPES (Log10 CFU/mL), 3 hr” value is reported as 6.7 Log10 CFU/mL.

On to B5, for which the “HEPES (Log10 CFU/mL), 3 hr” value is less than 3.7 Log10 CFU/mL.

Consider B7, for which the “HEPES (Log10 CFU/mL), 3 hr” value was less than 3.7 Log10 CFU/mL.

The test is the same for the next values; noted with them: CAA + 25% human serum; lysin 10 μg/ml; 1 hr; WC-453.
In the case of B1, the “CAA/HuS (Log10 CFU/mL), 1 hr” value came out at 5.7 Log10 CFU/mL.

Regarding B2, the “CAA/HuS (Log10 CFU/mL), 1 hr” value was determined as 5.7 Log10 CFU/mL.

On to B3, for which the “CAA/HuS (Log10 CFU/mL), 1 hr” value was found to be 6.7 Log10 CFU/mL.

In the case of B9, the “CAA/HuS (Log10 CFU/mL), 1 hr” value turned out to be 6.7 Log10 CFU/mL.

For the molecule B5, the “CAA/HuS (Log10 CFU/mL), 1 hr” value worked out at 5.7 Log10 CFU/mL.

Take B7: the “CAA/HuS (Log10 CFU/mL), 1 hr” value is on record as 6.6 Log10 CFU/mL.

Staying with this test, now noted: CAA + 25% human serum; lysin 10 μg/ml; 3 hr; WC-453.
Regarding B1, the “CAA/HuS (Log10 CFU/mL), 3 hr” value is less than 3.7 Log10 CFU/mL.

As for B2, the “CAA/HuS (Log10 CFU/mL), 3 hr” value is on record as less than 3.7 Log10 CFU/mL.

For B3, the “CAA/HuS (Log10 CFU/mL), 3 hr” value is listed as 6.7 Log10 CFU/mL.

B9: the “CAA/HuS (Log10 CFU/mL), 3 hr” value is 7.0 Log10 CFU/mL.

For B5, the “CAA/HuS (Log10 CFU/mL), 3 hr” value is given as less than 3.7 Log10 CFU/mL.

Turning to B7, the “CAA/HuS (Log10 CFU/mL), 3 hr” value was less than 3.7 Log10 CFU/mL.

Values taken from US20210324359A1, “USE OF GRAM-NEGATIVE LYSIN-ANTIMICROBIAL PEPTIDE (AMP) POLYPEPTIDE CONSTRUCTS IN TREATING ENDOCARDITIS” (priority 2020, published 2021).
